Experimental findings from article PMC3361975 are described below.

Substrate in series [1]: O=[PH](O)O
Nature of the series: purified protein. To be noted: co-substrate NAD+, 100 mM MOPS pH 7.25, 30 °C.

Substrate in series [2]: NC(=O)c1ccc[n+]([C@@H]2O[C@H](COP(=O)(O)OP(=O)(O)OC[C@H]3O[C@@H](n4cnc5c(N)ncnc54)[C@H](O)[C@@H]3O)[C@@H](O)[C@H]2O)c1
In words: purified protein. To be noted: co-substrate phosphite, 100 mM MOPS pH 7.25, 30 °C.

B1: PTDH ortholog from R. metallidurans (Cupriavidus metallidurans CH34) (protein)
chain: MNHRKIVVTQPVHEEVLRKLQAEGEVIMNPGPDPWSPSQLREYLVDADAMMAFMTDSVTKESLLNAPRLKTISCALKGYDNFDLRACAQAGVSVTFVPDLLTEPTAELAIGLAIAAGRNVLQGDAATRAGYSGWRPALYGTGLHGSVASVIGLGKVGQAILARLAGFGCARLLGVDPSVRLDQVELVTLDEAVSTSDYVFLAVPLVSDTRHLVDSRMLQLSKKGQILVNVGRGSVVDERAVVDALANEQLGAYAADVYEMEDWLLPDRPREIHPGLTNNARTVLTPHIGSAVRRVRFEIEMRAAENLVRSLRGESLSDVAVEASAAA
In the case of B1, the results for the Km in “purified protein [1]” and in the series “purified protein [2]” were 54.9 (6.8) μM and 4.5 (0.9) μM, respectively. In addition, the kcat in “purified protein [1]” and in the series “purified protein [2]” was 6.83 (0.43) s^-1 in each case.

B2: wt-PTDH (P. stutzeri) (Stutzerimonas stutzeri) (protein)
chain: MLPKLVITHRVHDEILQLLAPHCELMTNQTDSTLTREEILRRCRDAQAMMAFMPDRVDADFLQACPELRVVGCALKGFDNFDVDACTARGVWLTFVPDLLTVPTAELAIGLAVGLGRHLRAADAFVRSGEFQGWQPQFYGTGLDNATVGILGMGAIGLAMADRLQGWGATLQYHEAKALDTQTEQRLGLRQVACSELFASSDFILLALPLNADTQHLVNAELLALVRPGALLVNPCRGSVVDEAAVLAALERGQLGGYAADVFEMEDWARADRPRLIDPALLAHPNTLFTPHIGSAVRAVRLEIERCAAQNIIQVLAGARPINAANRLPKAEPAAC
On to B2, for which, in “purified protein [1]”, the Km was 81.1 (1.6) μM and the kcat is reported as 6.57 (0.03) s^-1. Besides, in the series “purified protein [2]”, the Km was 52.2 (3.3) μM and the kcat is given as 6.57 (0.03) s^-1.

B3: PTDH ortholog from N. punctiforme (Nostoc punctiforme PCC 73102) (protein)
chain: MKPKVVITHWVHPEIITNLSEYCEVVANPTRETLPREEILKLAQDAEALMVFMPDRIDEAFLKACPKLKIIAGALKGYDNFDVDACTRQGIWFTIVPSLLAVPTAELTIGLIIGLARQMLLGDRLIRQGTFAGWRPHLYGMGLANRTLGIVGMGSLGQALAQRLSSFEMNLIYTDAIPLPKEKAAAWCLSQVSLDTLLATSDFVVLMVPLQPETFHLINEKSLARMKPGSFLINPCRGSVVDEQAVSDALASGHLAGYAADVFELEDWARSDRPSKIPPSLLEKQDQTFFTPHLGSAVDDLRYDIAIEASQNILQVLQGHSPQGAINCPS
For the protein B3, in the series “purified protein [1]”, the Km is on record as 25.4 (1.2) μM and the kcat is given as 3.36 (0.03) s^-1. For the same protein, in “purified protein [2]”, the Km is recorded as 19.4 (1.6) μM and the kcat is given as 3.36 (0.03) s^-1.
